Assays:
[1] = target: HLA-B*4001 (human); assay: competition binding assay, purified HLA class I
[2] = target: HLA-B*4403 (human); assay: competition binding assay, purified HLA class I

- IC50 [1]: 10.4 µM
- IC50 [2]: 2.01 µM
Substance: WEELSML (MAGE2 position 234, 7-mer) (peptide)

Source: patent EP1903056A2
